Where two headings read alike, the source gives them in different places.

In assay [1] the target is ErbB2 on cells (SKBR3 high, SK-OV-3 moderate, MCF7 low expression) (human) (UniProt P04626). Nature of the assay: cell-based or functional assay.
Assay [2] has the same target. Nature of the assay: 3.0×10^11 cfu on SKBR3 cells 2 h at 37 °C, stripping buffer wash titered on E. coli TG1.
Assay [3] has the same target. Description: 5.0×10^11 phage on ErbB2 expressing SKBR3 cells at 37 °C, low pH glycine eluate titered on E. coli TG1.
For assay [4] the target is unchanged. Description: FACS on SKBR3 cells, anti-M13 and streptavidin-PE detection.
Assay [5] has the same target.
Assay [6] shares this target. This is another data set of the same source.
Assay [7] has as its target recombinant ErbB2 extracellular domain (UniProt P04626). Description: SPR (BIAcore). Background: Surface plasmon resonance follows binding to a sensor surface in real time, without labels.

Sequence of C6.5 scFv phagemid (P69168 19-424): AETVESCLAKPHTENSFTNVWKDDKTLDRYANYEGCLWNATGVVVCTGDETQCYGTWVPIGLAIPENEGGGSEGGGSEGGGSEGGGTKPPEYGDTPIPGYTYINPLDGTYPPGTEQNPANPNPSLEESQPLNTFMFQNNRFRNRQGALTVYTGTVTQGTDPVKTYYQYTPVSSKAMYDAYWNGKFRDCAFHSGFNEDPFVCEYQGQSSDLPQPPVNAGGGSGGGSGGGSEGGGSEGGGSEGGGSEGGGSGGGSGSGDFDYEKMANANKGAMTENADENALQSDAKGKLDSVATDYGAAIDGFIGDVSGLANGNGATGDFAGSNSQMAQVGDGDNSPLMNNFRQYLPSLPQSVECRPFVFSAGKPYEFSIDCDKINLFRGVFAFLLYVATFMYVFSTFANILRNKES
Sequence of F5-phagemid (monovalent) (P69168 19-424): as above
Sequence of C6.5 diabody phagemid (P69168 19-424): as above
Sequence of C6ML3-9 scFv phagemid (P69168 19-424): as above
Sequence of anti-botulinum scFv phagemid (clone 3D12) (P69168 19-424): as above
Sequence of fd-F5 phage (multivalent) (P03661 19-424): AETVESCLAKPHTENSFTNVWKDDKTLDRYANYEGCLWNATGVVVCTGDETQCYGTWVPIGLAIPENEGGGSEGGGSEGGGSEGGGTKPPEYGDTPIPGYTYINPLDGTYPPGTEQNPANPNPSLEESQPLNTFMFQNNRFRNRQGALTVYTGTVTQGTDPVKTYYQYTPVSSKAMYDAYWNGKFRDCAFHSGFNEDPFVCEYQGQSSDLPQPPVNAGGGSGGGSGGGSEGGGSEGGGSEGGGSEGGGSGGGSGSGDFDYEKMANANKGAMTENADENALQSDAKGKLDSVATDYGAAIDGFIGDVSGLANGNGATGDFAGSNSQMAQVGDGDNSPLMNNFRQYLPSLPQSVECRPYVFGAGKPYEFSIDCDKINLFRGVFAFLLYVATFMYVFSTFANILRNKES
Sequence of C6.5 scFv phage (fd) (P03661 19-424): as above

Consider “C6.5 diabody phagemid (from UniProt P69168 19-424)”, for which, in assay [1], the Intracellular Phage Titer worked out at 4.5e+07 cfu; the Lysed cell fraction (titer of internalized phage) amounted to 1.7e+07 phage titer; the cells with internalized phage (confocal microscopy, SKBR3 cells) is 20%; the input titer below which phage could not be recovered from within SKBR3 cells (input phage titer) was 30000. In assay [2], this substance yielded a Cell Surface Phage Titer, 1st Wash of 1.8e+08 cfu; a Cell Surface Phage Titer, 2nd Wash of 1.2e+07 cfu; a Cell Surface Phage Titer, 3rd Wash of 1.3e+06 cfu. In assay [3], this substance displayed a titer of cell surface bound phage, 1st glycine wash of 1.8e+07 phage titer and a titer of cell surface bound phage, 2nd glycine wash of 2.8e+06 phage titer.

In assay [1], C6.5 phage (Example 2) (scFv) showed a Lysed cell fraction (titer of internalized phage) of 6.8e+07 phage titer. In assay [3], this substance returned a titer of cell surface bound phage, 1st glycine wash of 1.2e+07 phage titer and a titer of cell surface bound phage, 2nd glycine wash of 5.2e+06 phage titer.

In assay [1], “C6.5 scFv phage (fd) (from UniProt P03661 19-424)” had an Intracellular Phage Titer of 2.2e+08 cfu and an input titer below which phage could not be recovered from within SKBR3 cells (input phage titer) of 30000. In assay [2], this substance had a Cell Surface Phage Titer, 1st Wash of 2.3e+08 cfu; a Cell Surface Phage Titer, 2nd Wash of 6.2e+07 cfu; a Cell Surface Phage Titer, 3rd Wash of 5.6e+06 cfu.

“C6.5 scFv phagemid (from UniProt P69168 19-424)”: in assay [1], the Intracellular Phage Titer was determined as 5.2e+06 cfu; the enrichment of C6.5 scFv phagemid over wild type fd phage in the cell lysate, with trypsinization was 209 fold; the enrichment of C6.5 scFv phagemid over wild type fd phage in the cell lysate, without trypsinization is 6.1 fold; the input titer below which phagemid could not be recovered from within SKBR3 cells (input phage titer) came to 300000. Further, in assay [2], the Cell Surface Phage Titer, 1st Wash was 6e+07 cfu; the Cell Surface Phage Titer, 2nd Wash was 9.6e+06 cfu; the Cell Surface Phage Titer, 3rd Wash turned out to be 760000 cfu.

Regarding C6.5cys scFv conjugated to liposomes, in assay [1], the Total uptake of scFv-conjugated liposomes by SKBR3 cells came to 3.4 and the share of the liposome uptake that was internalized (SKBR3 cells) stood at 70%.

Turning to “C6ML3-9 scFv phagemid (from UniProt P69168 19-424)”, in assay [1], the Intracellular Phage Titer is 2.7e+07 cfu and the input titer below which phagemid could not be recovered from within SKBR3 cells (input phage titer) turned out to be 3e+06. In assay [2], this substance had a Cell Surface Phage Titer, 1st Wash of 2.5e+08 cfu; a Cell Surface Phage Titer, 2nd Wash of 1.4e+07 cfu; a Cell Surface Phage Titer, 3rd Wash of 3.2e+06 cfu.

Consider “F5-phagemid (monovalent) (from UniProt P69168 19-424) (scFv)”, for which, in assay [1], the % of GFP positive cells (SKBR3, 48 hours; 0.78 µg reporter plasmid DNA) was 0.64%; the % of GFP positive cells (SKBR3, 48 hours; 3.1 µg reporter plasmid DNA) is 1.44%; the % of GFP positive cells (SKBR3, 48 hours; 15 µg reporter plasmid DNA) was 3.84%; the GFP expressing SKBR3 cells after 48 hrs (FACS) came out at 1.37%. Moreover, in assay [1], the GFP expressing SKBR3 cells in a co-culture of SKBR3 and MCF7 cells (FACS) was 1.91%; the GFP positive SKBR3 cells at the minimal phage concentration worked out at 0.12%; the maximum percentage of GFP positive SKBR3 cells in the time course was 4.5%. The substance further had a lowest phage concentration at which binding could be detected in assay [4] of 1e+10 cfu/ml.

In assay [5], “anti-botulinum scFv phagemid (clone 3D12) (from UniProt P69168 19-424)” showed a titer of cell surface bound phage, 1st glycine wash of 600000 phage titer and a titer of cell surface bound phage, 2nd glycine wash of 100000 phage titer. In assay [6], the Cell Surface Phage Titer, 1st Wash worked out at 2.8e+07 cfu; the Cell Surface Phage Titer, 2nd Wash was determined as 3.6e+06 cfu; the Cell Surface Phage Titer, 3rd Wash was 280000 cfu. In assay [1], the Intracellular Phage Titer is 1.5e+06 cfu and the Lysed cell fraction (titer of internalized phage) was 600000 phage titer.

In the case of “fd-F5 phage (multivalent) (from UniProt P03661 19-424) (scFv)”, in assay [1], the % of GFP positive cells (SKBR3, 48 hours; 1.25 ng reporter plasmid DNA) was 0.57%; the % of GFP positive cells (SKBR3, 48 hours; 2.25 ng reporter plasmid DNA) was 0.87%; the % of GFP positive cells (SKBR3, 48 hours; 5 ng reporter plasmid DNA) is 1.69%. This substance came in with a lowest phage concentration at which binding could be detected in assay [4] of 1e+08 cfu/ml.

As for native anti-ErbB2 F5 scFv, in assay [7], the Kd (as a rule, a measure of binding affinity in units of concentration) stood at 160 nM.

These data come from patent US20050037339A1.
